The record followed here is PMC10707054.

This test concerns the target FLAG-PTTG1Δ159. As to the kind of experiment: co-IP; TCAM2 cells overexpressing FLAG-PTTG1 or FLAG-PTTG1Δ159; IP with M2 αFLAG antibody overnight at 4 °C, Dynabeads; IP lysis buffer 50 mM Tris-Cl pH 7.5, 150 mM NaCl, 1% Nonidet P-40, 1 mM EDTA; Western blot for endogenous SPTBN1, densitometry. On the technique in general: In western blotting, separated proteins are transferred to a membrane and probed.

Take “Spectrin-βII-chain (SPTBN1) (from UniProt Q01082 1-2364) (natural protein)”: the binding relative to wild-type PTTG1 (densitometry of the co-IP) was determined as 30%.
